Reference: the RNAGym collection of RNA variant scans (doi:10.7554/elife.80360)

B1: CPEB3 Ribozyme (parent)
chain: GGGGGCCACAGCAGAAGCGUUCACGUCGCGGCCCCUGUCAGAUUCUGGUGAAUCUGCGAAUUCUGCUGU

Variants of: B1
Test: self-cleavage, relative activity (ratio to wild type); higher = more cleavage; co-transcriptional
U21A U46C gave a self-cleavage of 0.926.
Work on U21A U46A yielded a self-cleavage of 1.03.
Work on U21A U46G yielded a self-cleavage of 0.934.
U21C C34A gave a self-cleavage of 0.303.
For U21C C34G, the self-cleavage was 0.328.
In the case of U21C C34U, the self-cleavage is reported as 0.898.
U21A U62A showed a self-cleavage of 0.853.
Work on U21A U62G yielded a self-cleavage of 0.798.
In the case of U21C U64C, the self-cleavage is reported as 0.609.
U21A A42G showed a self-cleavage of 0.858.
In the case of U21A A42C, the self-cleavage is reported as 0.902.
For U21C C45U, the self-cleavage was 0.88.
Variant U21C C45A has a self-cleavage of 0.87.
For U21A G48U, the self-cleavage was 0.978.
U21A G48A showed a self-cleavage of 1.
For U21C U49A, the self-cleavage was 0.847.
Work on U21C U49C yielded a self-cleavage of 0.868.
Work on U21C U49G yielded a self-cleavage of 0.927.
Variant U21A U38C has a self-cleavage of 0.373.
With U21A U38A the self-cleavage was 0.276.
U21A U38G gave a self-cleavage of 0.24.
In the case of U20C U46C, the self-cleavage is reported as 0.257.
Variant U20C U46G has a self-cleavage of 0.275.
Work on U20G A40G yielded a self-cleavage of 0.169.
U20G A40U showed a self-cleavage of 0.134.
U20G A40C gave a self-cleavage of 0.243.
Work on U20G C32A yielded a self-cleavage of 0.218.
Variant U20G C32U has a self-cleavage of 0.157.
In the case of U20G A42U, the self-cleavage is reported as 0.216.
Variant U20G A42G has a self-cleavage of 0.079.
U20G A42C showed a self-cleavage of 0.279.
For U21A A52C, the self-cleavage was 1.03.
U21A A52G showed a self-cleavage of 1.01.
With U21A A52U the self-cleavage was 0.935.
In the case of U21A, the self-cleavage is reported as 0.979.
U21C gave a self-cleavage of 0.92.
U20G G31A showed a self-cleavage of 0.155.
Variant U20G G31C has a self-cleavage of 0.134.
Variant U21A G56U has a self-cleavage of 0.936.
Work on U21A G56C yielded a self-cleavage of 0.755.
In the case of U21A G56A, the self-cleavage is reported as 0.954.
With U20G U49A the self-cleavage was 0.26.
In the case of U20G U49C, the self-cleavage is reported as 0.173.
In the case of U20G U49G, the self-cleavage is reported as 0.27.
For U21C U36A, the self-cleavage was 0.0993.
For U21C U36G, the self-cleavage was 0.286.
Work on U21C U36C yielded a self-cleavage of 0.479.
With U20G G37C the self-cleavage was 0.151.
U20G G37A gave a self-cleavage of 0.173.
U21C U55C gave a self-cleavage of 0.611.
U20G G58U gave a self-cleavage of 0.213.
With U20G G58A the self-cleavage was 0.251.
In the case of U21C A59U, the self-cleavage is reported as 0.581.
In the case of U21C A59G, the self-cleavage is reported as 0.928.
With U21C C27U the self-cleavage was 0.138.
Variant U21C C27A has a self-cleavage of 0.344.
In the case of U20C U64A, the self-cleavage is reported as 0.167.
Work on U20C U64C yielded a self-cleavage of 0.278.
In the case of U20C U64G, the self-cleavage is reported as 0.104.
With U21C G25A the self-cleavage was 0.121.
U21C G25C showed a self-cleavage of 0.118.
Variant U21C G25U has a self-cleavage of 0.13.
In the case of U21C C33U, the self-cleavage is reported as 0.919.
U20G C35G showed a self-cleavage of 0.184.
For U20G C35U, the self-cleavage was 0.171.
U20G C35A showed a self-cleavage of 0.218.
In the case of U20G G41C, the self-cleavage is reported as 0.0984.
Work on U20G G41U yielded a self-cleavage of 0.194.
For U20G G41A, the self-cleavage was 0.127.
U21C A42U gave a self-cleavage of 0.891.
In the case of U21C A42G, the self-cleavage is reported as 0.749.
With U20G G65U the self-cleavage was 0.262.
With U20G G65A the self-cleavage was 0.155.
Work on U21C G28C yielded a self-cleavage of 0.0853.
U21C G28U showed a self-cleavage of 0.105.
In the case of U21A C27A, the self-cleavage is reported as 0.447.
Variant U21A C27U has a self-cleavage of 0.162.
With U20G C57U the self-cleavage was 0.143.
In the case of U21A G50A, the self-cleavage is reported as 0.989.
For U21A G50C, the self-cleavage was 0.924.
U21A C29U showed a self-cleavage of 0.413.
With U21A C29G the self-cleavage was 0.445.
Variant U21A G25A has a self-cleavage of 0.244.
Variant U21A G25C has a self-cleavage of 0.249.
